Substitutions are numbered along the chain they refer to. Names may count otherwise.
T1: HA-dm-HDAC6 (in vitro translated) (human, UniProt Q9UBN7 1-1215, H216A | H611A)
T1 construct: also called dead-mutant (dm) HDAC6; H216A/H611A; not shown: HA, N-terminal, kept
T1 sequence (looked up): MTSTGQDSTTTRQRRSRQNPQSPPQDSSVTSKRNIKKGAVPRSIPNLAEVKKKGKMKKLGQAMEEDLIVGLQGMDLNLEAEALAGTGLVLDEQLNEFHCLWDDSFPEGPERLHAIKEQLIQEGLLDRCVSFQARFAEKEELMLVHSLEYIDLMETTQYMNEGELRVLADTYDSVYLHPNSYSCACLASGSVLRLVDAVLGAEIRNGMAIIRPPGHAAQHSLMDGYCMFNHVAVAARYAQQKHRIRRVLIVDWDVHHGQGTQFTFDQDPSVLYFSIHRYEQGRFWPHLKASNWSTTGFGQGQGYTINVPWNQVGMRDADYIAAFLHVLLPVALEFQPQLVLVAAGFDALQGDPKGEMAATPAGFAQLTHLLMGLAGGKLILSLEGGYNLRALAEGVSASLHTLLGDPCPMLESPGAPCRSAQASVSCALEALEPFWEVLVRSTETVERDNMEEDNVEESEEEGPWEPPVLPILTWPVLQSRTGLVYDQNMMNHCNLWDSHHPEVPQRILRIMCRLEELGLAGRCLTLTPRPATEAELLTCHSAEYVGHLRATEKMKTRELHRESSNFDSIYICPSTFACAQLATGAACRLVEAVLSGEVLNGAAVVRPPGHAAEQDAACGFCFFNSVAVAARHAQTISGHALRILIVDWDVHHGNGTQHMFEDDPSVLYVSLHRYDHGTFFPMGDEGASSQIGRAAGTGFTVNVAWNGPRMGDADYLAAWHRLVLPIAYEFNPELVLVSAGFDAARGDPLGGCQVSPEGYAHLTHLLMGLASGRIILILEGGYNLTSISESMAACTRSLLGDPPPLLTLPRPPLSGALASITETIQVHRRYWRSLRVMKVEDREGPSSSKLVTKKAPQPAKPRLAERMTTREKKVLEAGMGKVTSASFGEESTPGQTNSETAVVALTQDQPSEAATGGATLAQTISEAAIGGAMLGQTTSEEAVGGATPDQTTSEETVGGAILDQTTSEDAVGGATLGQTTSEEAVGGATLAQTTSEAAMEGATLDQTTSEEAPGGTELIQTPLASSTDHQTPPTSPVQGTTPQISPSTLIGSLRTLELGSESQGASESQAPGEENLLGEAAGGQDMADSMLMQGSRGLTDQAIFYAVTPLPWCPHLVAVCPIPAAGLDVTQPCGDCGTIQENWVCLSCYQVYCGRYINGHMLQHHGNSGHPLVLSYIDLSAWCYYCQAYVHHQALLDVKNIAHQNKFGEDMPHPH

T2: HA-wt-HDAC6 (in vitro translated) (human, UniProt Q9UBN7 1-1215)
T2 construct: also called HA-HDAC6; source: in vitro translated (rabbit-reticulocytes system), purified on anti-HA agarose; not shown: HA, N-terminal, kept
T2 sequence (looked up): T1 sequence (looked up) with A216H, A611H

B1: GST-A3G (natural protein, human, UniProt Q9HC16 1-384, looked up)
chain: MKPHFRNTVERMYRDTFSYNFYNRPILSRRNTVWLCYEVKTKGPSRPPLDAKIFRGQVYSELKYHPEMRFFHWFSKWRKLHRDQEYEVTWYISWSPCTKCTRDMATFLAEDPKVTLTIFVARLYYFWDPDYQEALRSLCQKRDGPRATMKIMNYDEFQHCWSKFVYSQRELFEPWNNLPKYYILLHIMLGEILRHSMDPPTFTFNFNNEPWVRGRHETYLCYEVERMHNDTWVLLNQRRGFLCNQAPHKHGFLEGRHAELCFLDVIPFWKLDLDQDYRVTCFTSWSPCFSCAQEMAKFISKNKHVSLCIFTARIYDDQGRCQEGLRTLAEAGAKISIMTYSEFKHCWDTFVDHQGCPFQPWDGLDEHSQDLSGRLRAILQNQEN
notes: also called wt-A3G; GST-A3G (wt); source: E. coli BL21-DE3, purified on GSH-Sepharose
B2: GST-A3G-D128K (natural protein, human, UniProt Q9HC16 1-384, looked up)
chain: B1 chain with D128K
notes: source: E. coli BL21-DE3, purified on GSH-Sepharose
B3: GST-A3G-C97A (natural protein, human, UniProt Q9HC16 1-384, looked up)
chain: B1 chain with C97A
notes: as for B2
B4: GST-Vif (natural protein)
chain: not shown
notes: as for B2

Target: T1, HA-dm-HDAC6 (in vitro translated)
Test: pull-down; 3 μg GST fusion protein immobilised on glutathione-Sepharose beads, 2 μg purified in vitro translated HA-tagged protein, overnight in RIPA buffer at 4°C, three washes; anti-HA blot
Conditions: both partners purified

| Binder | binding result |
| --- | --- |
| B1 | binds |
| B2 | binds |
| B3 | binds |

Target: T2, HA-wt-HDAC6 (in vitro translated)
Test: as above
Conditions: both partners purified

| Binder | binding result |
| --- | --- |
| B1 | binds |
| B2 | binds |
| B3 | binds |
| B4 | binds |
